{
  "source": "paper PMC2763920",
  "about": "(Electrophoresis, 2009)",
  "key": {"GST-Fyn-SH3-SH2 [1]": {"target": "T1, GST-Fyn-SH3-SH2 (fluorescein on the N-terminus; phosphotyrosine (pY) at position 7 of the printed letters)", "assay": "fluorescence polarisation"}, "GST-Fyn-SH3-SH2 [2]": {"target": "T1, GST-Fyn-SH3-SH2", "assay": "high-speed capillary electrophoresis"}, "GST-Fyn-SH3-SH2 [3]": {"target": "T1, GST-Fyn-SH3-SH2", "assay": "high-speed capillary electrophoresis", "remark": "listed apart in the source"}},
  "note": "“And” between values parts separate entries of the source, which are not always exact repeats. Equal entries are not always repeated. Square brackets hold non-standard residues; d marks the D form. Ends that are not written are not given here. pY = N[C@@H](Cc1ccc(OP(=O)(O)O)cc1)C(=O)O",
  "data": [
    {"binder": "fluorescein-EEEEPQ[pY]EEIPIYL", "note": "[Fluor-Fyn peptide (fluorescein-EEEEPQpYEEIPIYL)]", "values": [
      {"measurement": "t1/2, two component decay, first component", "setting": "GST-Fyn-SH3-SH2 [1]", "value": 3.3, "unit": "s"},
      {"measurement": "t1/2, two component decay, second component", "setting": "GST-Fyn-SH3-SH2 [1]", "value": 59.5, "unit": "s"},
      {"measurement": "t1/2 of the complex, single exponential decay", "setting": "GST-Fyn-SH3-SH2 [1]", "value": "21.2 ± 1.3", "unit": "s"},
      {"measurement": "stoichiometry N", "setting": "GST-Fyn-SH3-SH2 [2]", "value": "0.5 peptide per protein (printed 2:1 protein: peptide, complex 1) and 1 peptide per protein (printed 2:2 protein: peptide, complex 2)"},
      {"measurement": "t1/2 of complex 1", "setting": "GST-Fyn-SH3-SH2 [3]", "value": 22, "unit": "s"},
      {"measurement": "t1/2 of complex 2", "setting": "GST-Fyn-SH3-SH2 [3]", "value": 58.8, "unit": "s"}
    ]}
  ]
}
